# Laboratory results: US20240207432A1 (BIOSION, published 2024)
# T1: human TROP2-his protein (human, UniProt P09758 27-274)
# T1 construct: Biotin-labelled in the ELISAs, unlabelled analyte in Biacore; also called biotin-labeled human TROP2-his protein; biotin human Trop2-his
# T1 sequence: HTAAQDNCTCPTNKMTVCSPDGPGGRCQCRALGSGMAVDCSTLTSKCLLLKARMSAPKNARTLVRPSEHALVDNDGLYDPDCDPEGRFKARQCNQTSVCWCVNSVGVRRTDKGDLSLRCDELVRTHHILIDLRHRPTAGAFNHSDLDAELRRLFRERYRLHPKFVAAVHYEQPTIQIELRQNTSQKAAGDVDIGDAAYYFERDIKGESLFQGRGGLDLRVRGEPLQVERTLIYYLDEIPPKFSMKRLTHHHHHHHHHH
# Biological target: T1, human TROP2-his protein
# Test: SPR Biacore T200, supernatant antibody captured on anti-human IgG CM5 chip, 40 nM human TROP2-his
# Protocol: The goat anti-human IgG (GE healthcare, Cat #BR100839, Human Antibody Capture Kit) was covalently linked to a CM5 chip instead of goat anti-mouse IgG. […] The human TROP2-his protein at the concentration of 40 nM was used instead of serially diluted human TROP2-his protein.
Kd,koff,kon,Binder
0.215 nM,0.000188 s⁻¹,874000 M⁻¹ s⁻¹,"huA1E4F7D4-V2 (antibody, human IgG1, kappa, V domains shown, Positions of the X residues are printed in CLM-00002, CLM-00003 and CLM-00005; Tested as cell supernatant) VH: QVQLVQSGAEVKKPGASVKVSCKASGYSFTTHWIHWVRQAPGQGLEWIGTIFPSNAYAVYNQKFRDRATMTADRSISTAYIELSRLRSDDTAVYYCARASYFDYWGQGTTVTVSS VL: EIVLTQSPATLSLSPGERATLSCRASQNIGTSIHWFQQKPGGSPRLLIKYASESISGIPSRFSGSGSGTDFTLTISSLEPEDFAVYYCQHSHSWPFTFGQGTKLEIKR"
0.261 nM,0.000304 s⁻¹,1.16e+06 M⁻¹ s⁻¹,"huA1E4F7D4-V19 (antibody, human IgG1, kappa, V domains shown, Positions of the X residues are given in the claims; Tested as cell supernatant) VH: QVQLVQSGAEVKKPGASVKVSCKASGYSFTTHWIHWVRQAPGQGLEWIGTIFPSNAYAVYNQKFRDRVTMTADRSISTAYIELSRLRSDDTAVYYCARASYFDYWGQGTTVTVSS VL: EIVLTQSPATLSLSPGERATLSCRASQNIGTSIHWFQQKPGGSPRLLIYYASESISGIPSRFSGSGSGTDFTLTISSLEPEDFAVYYCQHSHSWPFTFGQGTKLEIKR"
0.238 nM,0.000199 s⁻¹,836000 M⁻¹ s⁻¹,"huA1E4F7D4-V3 (antibody, human IgG1, kappa, V domains shown, Positions of the X residues are given in the claims; Tested as cell supernatant) VH: QVQLVQSGAEVKKPGASVKVSCKASGYTFTTHWIHWVRQAPGQGLEWIGTIFPSNAYAVYNQKFRDRATMTADRSISTAYIELSRLRSDDTAVYYCARASYFDYWGQGTTVTVSS VL: EIVLTQSPATLSLSPGERATLSCRASQNIGTSIHWFQQKPGGSPRLLIKYASESISGIPSRFSGSGSGTDFTLTISSLEPEDFAVYYCQHSHSWPFTFGQGTKLEIKR"
0.238 nM,0.000197 s⁻¹,830000 M⁻¹ s⁻¹,"huA1E4F7D4-V1 (antibody, human IgG1, kappa, V domains shown, Positions of the X residues are printed in CLM-00003 and CLM-00005; Tested as cell supernatant) VH: QVQLVQSGAEVKKPGASVKVSCKASGYSFTTHWIHWMKQRPGQGLEWIGTIFPSNAYAVYNQKFRDRAIMTADRSISTAYIELTRLRSDDTAVYYCARASYFDYWGQGTTVTVSS VL: DILLTQSPATLSLSPGERATLSCRASQNIGTSIHWFQQKPGGSPRLLIKYASESISGIPSRFSGSGSGTDFTLTISSVEPEDFAVYYCQHSHSWPFTFGQGTKLEIKR"
0.211 nM,0.000192 s⁻¹,909000 M⁻¹ s⁻¹,"huA1E4F7D4-V12 (antibody, human IgG1, kappa, V domains shown, Positions of the X residues are given in the claims; Tested as cell supernatant) VH: QVQLVQSGAEVKKPGASVKVSCKASGYSFTTHWIHWVRQAPGQGLEWIGTIFPSNAYAVYNQKFRDRATMTADRSISTAYIELSRLRSDDTAVYYCARASYFDYWGQGTTVTVSS VL: EIVLTQSPATLSLSPGERATLSCRASQNIGTSIHWFQQKPGGAPRLLIKYASESISGIPSRFSGSGSGTDFTLTISSLEPEDFAVYYCQHSHSWPFTFGQGTKLEIKR"
0.314 nM,0.000206 s⁻¹,656000 M⁻¹ s⁻¹,"huA1E4F7D4-V10 (antibody, human IgG1, kappa, V domains shown, Positions of the X residues are given in the claims; Tested as cell supernatant) VH: QVQLVQSGAEVKKPGASVKVSCKASGYSFTTHWIHWVRQAPGQGLEWIGTIFPSNAYAVYNQKFRDRATMTRDRSISTAYIELSRLRSDDTAVYYCARASYFDYWGQGTTVTVSS VL: EIVLTQSPATLSLSPGERATLSCRASQNIGTSIHWFQQKPGQSPRLLIKYASESISGIPSRFSGSGSGTDFTLTISSLEPEDFAVYYCQHSHSWPFTFGQGTKLEIKR"
0.221 nM,0.000199 s⁻¹,898000 M⁻¹ s⁻¹,"huA1E4F7D4-V13 (antibody, human IgG1, kappa, V domains shown, Positions of the X residues are given in the claims; Tested as cell supernatant) VH: QVQLVQSGAEVKKPGASVKVSCKASGYTFTTHWIHWVRQAPGQGLEWIGTIFPSNAYAVYNQKFRDRATMTADRSISTAYIELSRLRSDDTAVYYCARASYFDYWGQGTTVTVSS VL: EIVLTQSPATLSLSPGERATLSCRASQNIGTSIHWFQQKPGGAPRLLIKYASESISGIPSRFSGSGSGTDFTLTISSLEPEDFAVYYCQHSHSWPFTFGQGTKLEIKR"
0.232 nM,0.000279 s⁻¹,1.2e+06 M⁻¹ s⁻¹,"huA1E4F7D4-V17 (antibody, human IgG1, kappa, V domains shown, Positions of the X residues are given in the claims; Tested as cell supernatant) VH: QVQLVQSGAEVKKPGASVKVSCKASGYSFTTHWIHWVRQAPGQGLEWIGTIFPSNAYAVYNQKFRDRATMTADRSISTAYIELSRLRSDDTAVYYCARASYFDYWGQGTTVTVSS VL: EIVLTQSPATLSLSPGERATLSCRASQNIGTSIHWFQQKPGGSPRLLIYYASESISGIPSRFSGSGSGTDFTLTISSLEPEDFAVYYCQHSHSWPFTFGQGTKLEIKR"
0.353 nM,0.000204 s⁻¹,577000 M⁻¹ s⁻¹,"huA1E4F7D4-V5 (antibody, human IgG1, kappa, V domains shown, Positions of the X residues are given in the claims; Tested as cell supernatant) VH: QVQLVQSGAEVKKPGASVKVSCKASGYSFTTHWIHWVRQAPGQGLEWIGTIFPSNAYAVYNQKFRDRATMTRDRSISTAYIELSRLRSDDTAVYYCARASYFDYWGQGTTVTVSS VL: EIVLTQSPATLSLSPGERATLSCRASQNIGTSIHWFQQKPGGSPRLLIKYASESISGIPSRFSGSGSGTDFTLTISSLEPEDFAVYYCQHSHSWPFTFGQGTKLEIKR"
0.215 nM,0.00019 s⁻¹,883000 M⁻¹ s⁻¹,"huA1E4F7D4-V4 (antibody, human IgG1, kappa, V domains shown, Positions of the X residues are given in the claims; Tested as cell supernatant) VH: QVQLVQSGAEVKKPGASVKVSCKASGYSFTTHWIHWVRQAPGQGLEWIGTIFPSNAYAVYNQKFRDRVTMTADRSISTAYIELSRLRSDDTAVYYCARASYFDYWGQGTTVTVSS VL: EIVLTQSPATLSLSPGERATLSCRASQNIGTSIHWFQQKPGGSPRLLIKYASESISGIPSRFSGSGSGTDFTLTISSLEPEDFAVYYCQHSHSWPFTFGQGTKLEIKR"
0.235 nM,0.000195 s⁻¹,832000 M⁻¹ s⁻¹,"huA1E4F7D4-V8 (antibody, human IgG1, kappa, V domains shown, Positions of the X residues are given in the claims; Tested as cell supernatant) VH: QVQLVQSGAEVKKPGASVKVSCKASGYTFTTHWIHWVRQAPGQGLEWIGTIFPSNAYAVYNQKFRDRATMTADRSISTAYIELSRLRSDDTAVYYCARASYFDYWGQGTTVTVSS VL: EIVLTQSPATLSLSPGERATLSCRASQNIGTSIHWFQQKPGQSPRLLIKYASESISGIPSRFSGSGSGTDFTLTISSLEPEDFAVYYCQHSHSWPFTFGQGTKLEIKR"
0.335 nM,0.00029 s⁻¹,868000 M⁻¹ s⁻¹,"huA1E4F7D4-V20 (antibody, human IgG1, kappa, V domains shown, Positions of the X residues are given in the claims; Tested as cell supernatant) VH: QVQLVQSGAEVKKPGASVKVSCKASGYSFTTHWIHWVRQAPGQGLEWIGTIFPSNAYAVYNQKFRDRATMTRDRSISTAYIELSRLRSDDTAVYYCARASYFDYWGQGTTVTVSS VL: EIVLTQSPATLSLSPGERATLSCRASQNIGTSIHWFQQKPGGSPRLLIYYASESISGIPSRFSGSGSGTDFTLTISSLEPEDFAVYYCQHSHSWPFTFGQGTKLEIKR"
0.223 nM,0.000193 s⁻¹,865000 M⁻¹ s⁻¹,"huA1E4F7D4-V9 (antibody, human IgG1, kappa, V domains shown, Positions of the X residues are given in the claims; Tested as cell supernatant) VH: QVQLVQSGAEVKKPGASVKVSCKASGYSFTTHWIHWVRQAPGQGLEWIGTIFPSNAYAVYNQKFRDRVTMTADRSISTAYIELSRLRSDDTAVYYCARASYFDYWGQGTTVTVSS VL: EIVLTQSPATLSLSPGERATLSCRASQNIGTSIHWFQQKPGQSPRLLIKYASESISGIPSRFSGSGSGTDFTLTISSLEPEDFAVYYCQHSHSWPFTFGQGTKLEIKR"
0.216 nM,0.000192 s⁻¹,887000 M⁻¹ s⁻¹,"huA1E4F7D4-V7 (antibody, human IgG1, kappa, V domains shown, Positions of the X residues are given in the claims; Tested as cell supernatant) VH: QVQLVQSGAEVKKPGASVKVSCKASGYSFTTHWIHWVRQAPGQGLEWIGTIFPSNAYAVYNQKFRDRATMTADRSISTAYIELSRLRSDDTAVYYCARASYFDYWGQGTTVTVSS VL: EIVLTQSPATLSLSPGERATLSCRASQNIGTSIHWFQQKPGQSPRLLIKYASESISGIPSRFSGSGSGTDFTLTISSLEPEDFAVYYCQHSHSWPFTFGQGTKLEIKR"
0.163 nM,0.000175 s⁻¹,1.08e+06 M⁻¹ s⁻¹,"huA1E4F7D4-V11 (antibody, human IgG1, kappa, V domains shown, Positions of the X residues are given in the claims; Tested as cell supernatant) VH: QVQLVQSGAEVKKPGASVKVSCKASGYSFTTHWIHWVRQAPGQGLEWIGTIFPSNAYAVYNQKFRDRATMTADTSISTAYIELSRLRSDDTAVYYCARASYFDYWGQGTTVTVSS VL: EIVLTQSPATLSLSPGERATLSCRASQNIGTSIHWFQQKPGQSPRLLIKYASESISGIPSRFSGSGSGTDFTLTISSLEPEDFAVYYCQHSHSWPFTFGQGTKLEIKR"
0.23 nM,0.00028 s⁻¹,1.22e+06 M⁻¹ s⁻¹,"huA1E4F7D4-V18 (antibody, human IgG1, kappa, V domains shown, Positions of the X residues are given in the claims; Tested as cell supernatant) VH: QVQLVQSGAEVKKPGASVKVSCKASGYTFTTHWIHWVRQAPGQGLEWIGTIFPSNAYAVYNQKFRDRATMTADRSISTAYIELSRLRSDDTAVYYCARASYFDYWGQGTTVTVSS VL: EIVLTQSPATLSLSPGERATLSCRASQNIGTSIHWFQQKPGGSPRLLIYYASESISGIPSRFSGSGSGTDFTLTISSLEPEDFAVYYCQHSHSWPFTFGQGTKLEIKR"
0.232 nM,0.000193 s⁻¹,834000 M⁻¹ s⁻¹,"huA1E4F7D4-V14 (antibody, human IgG1, kappa, V domains shown, Positions of the X residues are given in the claims; Tested as cell supernatant) VH: QVQLVQSGAEVKKPGASVKVSCKASGYSFTTHWIHWVRQAPGQGLEWIGTIFPSNAYAVYNQKFRDRVTMTADRSISTAYIELSRLRSDDTAVYYCARASYFDYWGQGTTVTVSS VL: EIVLTQSPATLSLSPGERATLSCRASQNIGTSIHWFQQKPGGAPRLLIKYASESISGIPSRFSGSGSGTDFTLTISSLEPEDFAVYYCQHSHSWPFTFGQGTKLEIKR"
0.359 nM,0.000205 s⁻¹,571000 M⁻¹ s⁻¹,"huA1E4F7D4-V15 (antibody, human IgG1, kappa, V domains shown, Positions of the X residues are given in the claims; Tested as cell supernatant) VH: QVQLVQSGAEVKKPGASVKVSCKASGYSFTTHWIHWVRQAPGQGLEWIGTIFPSNAYAVYNQKFRDRATMTRDRSISTAYIELSRLRSDDTAVYYCARASYFDYWGQGTTVTVSS VL: EIVLTQSPATLSLSPGERATLSCRASQNIGTSIHWFQQKPGGAPRLLIKYASESISGIPSRFSGSGSGTDFTLTISSLEPEDFAVYYCQHSHSWPFTFGQGTKLEIKR"
0.166 nM,0.000179 s⁻¹,1.08e+06 M⁻¹ s⁻¹,"huA1E4F7D4-V6 (antibody, human IgG1, kappa, V domains shown, Positions of the X residues are given in the claims; Tested as cell supernatant) VH: QVQLVQSGAEVKKPGASVKVSCKASGYSFTTHWIHWVRQAPGQGLEWIGTIFPSNAYAVYNQKFRDRATMTADTSISTAYIELSRLRSDDTAVYYCARASYFDYWGQGTTVTVSS VL: EIVLTQSPATLSLSPGERATLSCRASQNIGTSIHWFQQKPGGSPRLLIKYASESISGIPSRFSGSGSGTDFTLTISSLEPEDFAVYYCQHSHSWPFTFGQGTKLEIKR"
